Data as given in the supplement of paper PMC12764529.
± gives the half width of the 95% confidence interval.

Experiment: folding stability dG unfold (combined trypsin and chymotrypsin); higher = more stable
Method in brief: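 Unfolding free energy was derived, per protease or combined, by relating Bayesian-fitted K50 values from sequencing counts to a sequence-predicted unfolded-state K50 and a shared folded-state K50. The underlying digests exposed cysteine-free mini-proteins under 80 residues, in a PA-tagged cDNA display construct, to trypsin and chymotrypsin at 11 threefold-diluted concentrations and to a no-protease condition. A filter kept only designs with AlphaFold2 dimer inter-PAE above 15.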

Row | Sequence | folding stability dG unfold
1 | SAGGSAGGSAGKAESGDNAITLTLPGGHKVTIPNLPPNEPVWVKLNNRWVKIGDLKVNPKSAGGSAGGSAGG [r11_16_TrMRF] | 0.196 ± 0.18 kcal/mol
2 | SMEEEEEEPEPAPVVVITVEPGETVEQVRAAAREAAEKGMRIVITGLSEEEAKAIAEELGLDVEIEVVEPSA [r9_1207_TrROS_Hall] | 2.69 ± 0.78 kcal/mol
3 | SAGGSAGGSASIGGGPTGHSYKITLPNGTEKFLVMDPSTLKELIEKLGVKEVEVKDIGPLQSAGGSAGGSAG [r3_141_JUSTAS] | 0.482 ± 0.15 kcal/mol
4 | SAGGMYVLPIDLDPASLTEEERLAVARELAEELYAAGVPGDVMLIIPREEKPLTITIDFATGEVTVVDSAGG [r19_204_JUSTAS] | 1.31 ± 0.048 kcal/mol
5 | SYSTSTVTVPVAADEIDKAKEIAKELAEKLPPNSRVTFNMPAPDGSTFTVEVTVNPDGTITVTVSDSLPAVS [r1_350_JUSTAS] | 1.34 ± 0.087 kcal/mol
6 | SAGGSAGGSAGGWAFMWVIEIEMPPEQMPPEDMKKFPNMRIEIEPYWVPIKIDPENGELRSAGGSAGGSAGG [r17_310_TrROS] | 2.5 ± 0.19 kcal/mol
7 | SAGGAMVPVNFTLKFTYTNPDGTPVFREKPVTLPFPESDPAAAEAAARARAEAEAAARGVEVDLEVSLSAGG [r13_853_JUSTAS] | 0.193 ± 0.11 kcal/mol
8 | SALLEPLLLEVYIPATGEVITVPAKSLEEAEAIIAEVRADPTVASVRITLPDGTVVEVSFNVSPAAYLKSAG [r14_747_JUSTAS] | 0.304 ± 0.2 kcal/mol
9 | SAGGSATPKDPDGKEWKPIAVIDIEEMRPETLKELLEENKGPIWIHPPGEGKPFWIPADEIEDMIDSAGGSA [r15_904_TrROS] | 0.336 ± 0.21 kcal/mol
10 | SAGNPDKPPKPRTYTLEIEIKLPPGDPDQAKELAHEIAHEIRDLGIKDTEVEYDPGNGRVRISITFTFWSAG [r5_512_TrROS] | 3.27 ± 0.28 kcal/mol
11 | SPEIKIEVFKNEDGEEIFIKIEVPPGWRIRIIYNGKEIEEIEVDGYRIRFEEVDGKLRIEVEPLPPGEKPSA [r9_221_TrROS_Hall] | 5.2 ± 0.27 kcal/mol
12 | SAGGSAGGSAGAKKLPPGQVALRIEPVTVTVTDEDGKERTVTRIRLVDAATGEEYEFTFPSAGGSAGGSAGG [r17_266_TrROS_Hall] | 0.744 ± 0.15 kcal/mol
13 | SAGGSAGGSAGGMTIVLNIPKEELTEEEIKKLKESLPSDNPVKIIVKPKPPRKFYPKSTISAGGSAGGSAGG [r7_979_JUSTAS] | 0.925 ± 0.065 kcal/mol
14 | SAGGSAKYYYIVAEIDLPNKKVRFVKKVKKGDVEKFKAEIKKAFPGKKIKVKVIEFESEEEAKKAASAGGSA [r15_889_TrMRF] | 4.01 ± 0.088 kcal/mol
15 | SAGGSAGGSAPPPPPPVYRIPIEITEIDPNGKITVTLPDLGEEITFPAPNVEVIPGDEFYIPSAGGSAGGSA [r18_89_TrROS] | 1.86 ± 0.16 kcal/mol
16 | SAGGSAGGSAGGSSFTIKVELKDENGNKYTITVTGTGSAETVKKELEKKYPNKIVKITGSAGGSAGGSAGGS [r4_412_TrMRF] | 2.69 ± 0.046 kcal/mol

Row | Sequence | folding stability dG unfold
17 | SAGGGSVSITLELEEEEEIEEIVNEKGIPEPLEKRIKKKVTITISPPPTLSSSSSVTGLAEKAIEEKSAGGS [r16_359_JUSTAS] | 0.101 ± 0.31 kcal/mol
18 | SAGGSAGGSAMQRDPDGKPQPQVTFRIPADDMPEEQIKKHLPPEFADNFRDNMPEGDTITLSAGGSAGGSAG [r3_326_TrROS] | -0.239 ± 0.14 kcal/mol
19 | SAGGMTTTTVEVKRLPNGSIERTLKTTVPLPNGDLVVTTTKSIVYREDGKVVKEEVLETETTLLPATSAGGS [r8_36_JUSTAS] | 2.77 ± 0.074 kcal/mol
20 | SAGGMTKEKALELAEEIAREFAKKHGIEKLELKVEDVVEKEDEVIVRLKIVYPDKVYELDLVVPKDYVSAGG [r13_611_TrMRF] | 3.7 ± 0.19 kcal/mol
21 | SAGGSAGGSAGHIPIIFQFEFEHYDPDDGKPKEHRWVIVIEFDGNGIKNIRIIPKEDAKKLLSAGGSAGGSA [r18_406_TrROS] | 2.25 ± 0.14 kcal/mol
22 | SAGGSAGGSAGSMFMIMIEYDPPGYIKVSINRYKMGPDGDFEPVEPETHEIPIPPGQPFFSAGGSAGGSAGG [r11_440_TrROS] | 2.3 ± 0.17 kcal/mol
23 | SAGGSPISLEVSTSTLPDGTLRVTTTATSPDSSRSYTVTLDFPPSQPEEIPARAAAEAAAIAADPAVASAGG [r13_968_JUSTAS] | 0.907 ± 0.086 kcal/mol
24 | SAGGKKKKIKPKEIKVRIIIEKDGKKIEIELSEEELEKIKKAPTLEEIIKELEKKGFKIVKIEIEKKSAGGS [r16_567_TrROS_Hall] | 2.43 ± 0.21 kcal/mol
25 | SAGGSAGGSAGYIKTEHEVTVMEKDPDGGTKMIEVPVKITIPIIPIPPEALEKNPEALKKFLSAGGSAGGSA [r18_114_TrROS] | 0.514 ± 0.22 kcal/mol
26 | SAGGSAGGSAGGSGSSVLVKTTTTLSVAPGATITLPDGTVYTVPAGVPVTVTTWVLVETSAGGSAGGSAGGS [r4_232_JUSTAS] | 3.38 ± 0.13 kcal/mol
27 | SKTFYAGLDVYFDPDSDELTALVGVRSEDGSYEPSLEEVAREVAAKLRELGYEVEVEPLPGYARIRVKPPSA [r9_510_TrMRF] | 1.71 ± 0.057 kcal/mol
28 | SLRDIAKEIAEKAGMDPEDVEINVETEPDPKNGKPRLRITVSIEHPNRKYMIKIDFQDGEIEEIMPLEDISA [r9_1219_TrROS] | 1.74 ± 0.3 kcal/mol
29 | SAGNFKIDINPENNMIMIKSPNGWFMFPFTYTRTQPEPDPDDPNEWKQRPRTETHYIMMPANDLKDLLNSAG [r5_234_TrROS] | 0.541 ± 0.27 kcal/mol
30 | SAGGSAGGSAGKIYIVKLPNETIEIEFEGTEEEAIDFAIKELEKLFPKPIPKDDIIILGGSAGGSAGGSAGG [r11_1028_TrMRF] | 1.71 ± 0.14 kcal/mol
31 | SPTVTETTLIASEEDPSSGVKTELTETTTIVKVGGTTTEVTTTTTTLTPEEDGKGTSTVTPSTTTTPIPASA [r9_375_JUSTAS] | 1.29 ± 0.12 kcal/mol
32 | SAGGMIAPDEKVLVKVTLSEGTTSRELEFEFEVPPGATEEELKQRVIDEIPEEPRKNWKVEVEIKPVSAGGS [r16_321_JUSTAS] | 0.596 ± 0.21 kcal/mol
